Experimental data reported in patent publication US6942981.
Ends that are not written are not given here. * marks the point of attachment. Biotin = O=C1N[C@H]2[C@H](CS[C@H]2CCCCC(=O)*)N1

T1: GST-TAX43 PDZ domain fusion protein (human, UniProt Q13884 109-180)
T1 construct: not shown: glutathione S-transferase (GST) encoded by pGEX-3X
T1 sequence: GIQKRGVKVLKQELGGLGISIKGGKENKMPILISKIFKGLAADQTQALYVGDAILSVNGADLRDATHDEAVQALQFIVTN

T2: GST-MPP2 PDZ domain fusion protein
T2 construct: also called maguk p55 subfamily member 2 (DLG2); MMP2; not shown: glutathione S-transferase (GST) encoded by pGEX-3X
T2 chain: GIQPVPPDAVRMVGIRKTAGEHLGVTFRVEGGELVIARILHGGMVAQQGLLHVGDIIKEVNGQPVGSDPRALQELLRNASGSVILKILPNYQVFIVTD

T3: GST-MPP1 PDZ domain fusion protein (Homo sapiens (Human), UniProt Q00013 67-152)
T3 construct: also called 55 Kd erythrocyte membrane protein; not shown: glutathione S-transferase (GST) encoded by pGEX-3X
T3 sequence: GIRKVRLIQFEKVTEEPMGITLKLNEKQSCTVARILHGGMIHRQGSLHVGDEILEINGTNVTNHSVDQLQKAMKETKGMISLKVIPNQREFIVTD

T4: GST-LIMK2 PDZ domain fusion protein (human, UniProt P53671 147-237)
T4 construct: also called human LIM domain kinase 2; not shown: glutathione S-transferase (GST) encoded by pGEX-3X
T4 sequence: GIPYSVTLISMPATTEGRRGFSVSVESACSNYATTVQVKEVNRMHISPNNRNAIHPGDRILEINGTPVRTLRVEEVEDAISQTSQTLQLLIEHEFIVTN

T5: GST-KIAA0559 PDZ domain fusion protein (Homo sapiens (Human), UniProt Q9Y6V0 4489-4594)
T5 construct: also called K559; not shown: glutathione S-transferase (GST) encoded by pGEX-3X
T5 sequence: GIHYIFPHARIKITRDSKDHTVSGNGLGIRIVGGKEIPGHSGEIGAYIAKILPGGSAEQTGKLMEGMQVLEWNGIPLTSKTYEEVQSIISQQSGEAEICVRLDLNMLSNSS

T6: GST-41.8 kD (hypothetical 41.8 kD protein) PDZ domain fusion protein (Mus musculus (Mouse), UniProt Q9EQZ7 682-763)
T6 construct: not shown: glutathione S-transferase (GST) encoded by pGEX-3X
T6 sequence: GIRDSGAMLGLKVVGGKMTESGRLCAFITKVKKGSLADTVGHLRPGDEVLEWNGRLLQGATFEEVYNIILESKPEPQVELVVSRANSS

T7: GST-TAX33 PDZ domain fusion protein (Homo sapiens (Human), UniProt O14910 103-194)
T7 construct: not shown: glutathione S-transferase (GST) encoded by pGEX-3X
T7 sequence: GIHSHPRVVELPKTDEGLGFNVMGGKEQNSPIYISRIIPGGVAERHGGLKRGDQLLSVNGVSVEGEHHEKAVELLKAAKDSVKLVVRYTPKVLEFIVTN

T8: GST-PTN-4 PDZ domain fusion protein (Homo sapiens (Human), UniProt P29074 517-605)
T8 construct: also called protein-tyrosine phosphatase meg1; not shown: glutathione S-transferase (GST) encoded by pGEX-3X
T8 sequence: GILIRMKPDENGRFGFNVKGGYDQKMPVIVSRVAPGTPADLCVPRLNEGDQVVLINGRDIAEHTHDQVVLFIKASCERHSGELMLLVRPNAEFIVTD

T9: GST-KIAA0303 PDZ domain fusion protein (Homo sapiens (Human), UniProt O15021 1138-1229)
T9 construct: also called K303; not shown: glutathione S-transferase (GST) encoded by pGEX-3X
T9 sequence: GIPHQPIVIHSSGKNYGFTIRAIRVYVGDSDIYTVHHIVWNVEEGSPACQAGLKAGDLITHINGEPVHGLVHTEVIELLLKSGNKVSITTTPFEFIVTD

T10: GST-DVL1 PDZ domain fusion protein (human)
T10 construct: also called human dishevelled segment polarity protein homolog; not shown: glutathione S-transferase (GST) encoded by pGEX-3X
T10 chain: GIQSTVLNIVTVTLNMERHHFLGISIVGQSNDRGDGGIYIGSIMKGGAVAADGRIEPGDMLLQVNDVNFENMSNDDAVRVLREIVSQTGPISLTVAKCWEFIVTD

T11: GST-CASK PDZ domain fusion protein (mouse, UniProt O14936 485-575 (human entry))
T11 sequence: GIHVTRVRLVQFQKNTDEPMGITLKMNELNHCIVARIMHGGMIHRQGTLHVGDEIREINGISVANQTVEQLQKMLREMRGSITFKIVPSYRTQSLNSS

T12: GST-RGS12 PDZ domain fusion protein (human, UniProt O14924 17-85)
T12 construct: also called human regulator of G-protein signalling 12; not shown: glutathione S-transferase (GST) encoded by pGEX-3X
T12 sequence: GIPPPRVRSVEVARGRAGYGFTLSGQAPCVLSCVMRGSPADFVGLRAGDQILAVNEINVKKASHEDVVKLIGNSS

T13: GST-CBP (Cytohesin binding protein HE) PDZ domain fusion protein (Homo sapiens (Human), UniProt O60759 74-165)
T13 construct: not shown: glutathione S-transferase (GST) encoded by pGEX-3X
T13 sequence: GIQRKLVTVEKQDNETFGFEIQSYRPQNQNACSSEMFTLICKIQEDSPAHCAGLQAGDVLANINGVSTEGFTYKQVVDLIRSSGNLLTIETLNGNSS

T14: GST-SYN1a (alpha1-syntrophin) PDZ domain fusion protein (Homo sapiens (Human), UniProt Q13424 84-179)
T14 construct: also called SYN 1 α; not shown: glutathione S-transferase (GST) encoded by pGEX-3X
T14 sequence: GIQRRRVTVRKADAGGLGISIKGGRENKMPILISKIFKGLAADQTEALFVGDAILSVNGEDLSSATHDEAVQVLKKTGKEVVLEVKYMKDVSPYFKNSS


Assays:
Assay in all cases: A/G assays
[1] = target: T1, GST-TAX43 PDZ domain fusion protein
[2] = target: T15, GST-KIAA0316 PDZ domain fusion protein (Homo sapiens (Human), UniProt Q14CM0 72-159)
T15 construct: also called K316; not shown: glutathione S-transferase (GST) encoded by pGEX-3X

[3] = target: T2, GST-MPP2 PDZ domain fusion protein
[4] = target: T16, GST-NOS1 PDZ domain fusion protein (human, UniProt P29475 11-101)
T16 construct: also called human neuronal nitric oxide synthase; not shown: glutathione S-transferase (GST) encoded by pGEX-3X

[5] = target: T3, GST-MPP1 PDZ domain fusion protein
[6] = target: T4, GST-LIMK2 PDZ domain fusion protein
[7] = target: T17, GST-TIAM1 PDZ domain fusion protein (Homo sapiens (Human), UniProt Q13009 845-932)
T17 construct: also called T-lymphoma invasion and metastasis inducing protein 1; not shown: glutathione S-transferase (GST) encoded by pGEX-3X

[8] = target: T5, GST-KIAA0559 PDZ domain fusion protein
[9] = target: T6, GST-41.8 kD (hypothetical 41.8 kD …)
[10] = target: T7, GST-TAX33 PDZ domain fusion protein
[11] = target: T8, GST-PTN-4 PDZ domain fusion protein
[12] = target: T9, GST-KIAA0303 PDZ domain fusion protein
[13] = target: T10, GST-DVL1 PDZ domain fusion protein
[14] = target: T11, GST-CASK PDZ domain fusion protein
[15] = target: T12, GST-RGS12 PDZ domain fusion protein
[16] = target: T13, GST-CBP (Cytohesin binding protein HE) …
[17] = target: T14, GST-SYN1a (alpha1-syntrophin) PDZ …

T15 sequence (Q14CM0 other isoform, or with tags, fused parts or gaps): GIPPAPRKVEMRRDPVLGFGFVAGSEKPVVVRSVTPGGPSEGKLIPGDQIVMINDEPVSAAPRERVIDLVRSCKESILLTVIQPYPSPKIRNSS
T16 sequence (P29475 other isoform, or with tags, fused parts or gaps): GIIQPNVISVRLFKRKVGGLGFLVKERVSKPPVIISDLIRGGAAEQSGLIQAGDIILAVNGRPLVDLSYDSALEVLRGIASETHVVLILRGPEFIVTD
T17 sequence (Q13009 other isoform, or with tags, fused parts or gaps): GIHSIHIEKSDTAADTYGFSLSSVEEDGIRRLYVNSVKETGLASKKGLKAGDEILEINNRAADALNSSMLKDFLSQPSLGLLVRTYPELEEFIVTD

Row | binding result [1] | binding result [2] | binding result [3] | binding result [4] | binding result [5] | binding result [6] | binding result [7] | binding result [8] | binding result [9] | binding result [10] | binding result [11] | binding result [12] | binding result [13] | binding result [14] | binding result [15] | binding result [16] | binding result [17] | Binder
1 | no binding | no binding | no binding | no binding | no binding | no binding | no binding | no binding | no binding | no binding | no binding | no binding | no binding | no binding | no binding | no binding | no binding | Biotin-QATSRNGHSARQHVVADTEL [CD34 C-terminal peptide AA7L]
2 | no binding | no binding | no binding | no binding | no binding | no binding | no binding | no binding | no binding | no binding | no binding | no binding | no binding | no binding | no binding | no binding | no binding | Biotin-TIYENLAPVTTFGKTIA [CD148 peptide AA55L (ending KTIA)]
